According to US20030229005A1:

Columns and labels:
Test in all cases: cell-based or functional assay
collagenase 1 = collagenase 1 (UniProt P03956)
gelatinase B = gelatinase B (UniProt P14780)
[1] = target: human Collagenase-3 (human) (UniProt P45452)

collagenase 1, sequence (P03956 100-469 limits assumed): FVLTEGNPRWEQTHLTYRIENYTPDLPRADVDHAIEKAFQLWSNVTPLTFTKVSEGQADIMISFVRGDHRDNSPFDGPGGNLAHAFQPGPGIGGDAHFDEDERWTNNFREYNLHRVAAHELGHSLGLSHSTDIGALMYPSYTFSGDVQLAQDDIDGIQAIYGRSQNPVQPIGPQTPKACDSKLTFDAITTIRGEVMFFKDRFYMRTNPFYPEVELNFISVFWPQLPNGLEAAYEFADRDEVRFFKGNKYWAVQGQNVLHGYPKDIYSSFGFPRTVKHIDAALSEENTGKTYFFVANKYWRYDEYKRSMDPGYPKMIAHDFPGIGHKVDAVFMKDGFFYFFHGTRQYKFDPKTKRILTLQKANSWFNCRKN
gelatinase B, sequence (P14780 107-707 limits assumed): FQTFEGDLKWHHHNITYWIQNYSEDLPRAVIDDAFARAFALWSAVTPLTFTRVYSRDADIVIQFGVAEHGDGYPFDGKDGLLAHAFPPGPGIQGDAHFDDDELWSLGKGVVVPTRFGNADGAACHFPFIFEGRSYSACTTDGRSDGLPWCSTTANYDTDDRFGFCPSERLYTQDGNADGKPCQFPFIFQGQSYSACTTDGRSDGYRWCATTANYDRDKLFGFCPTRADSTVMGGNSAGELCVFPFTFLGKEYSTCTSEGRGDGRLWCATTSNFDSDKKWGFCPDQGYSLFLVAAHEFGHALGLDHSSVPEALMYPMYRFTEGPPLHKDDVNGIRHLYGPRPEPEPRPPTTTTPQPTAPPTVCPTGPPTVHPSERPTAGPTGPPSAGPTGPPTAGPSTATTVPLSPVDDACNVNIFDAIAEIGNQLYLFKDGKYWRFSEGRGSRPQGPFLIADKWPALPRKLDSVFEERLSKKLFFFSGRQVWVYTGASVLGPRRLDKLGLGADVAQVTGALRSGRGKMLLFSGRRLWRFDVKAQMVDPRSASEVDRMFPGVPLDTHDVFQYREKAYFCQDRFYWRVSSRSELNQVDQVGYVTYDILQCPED

“bovine type II collagen (from UniProt P02459 182-1241)” gave an Average Percent Inhibition from 1.1 to 6.6 Hours, Type II Collagen 0.18 ug/ml (collagenase 1) of 0%, an Average Percent Inhibition from 1.1 to 6.6 Hours, Type II Collagen 0.54 ug/ml (collagenase 1) of 3% and an Average Percent Inhibition from 1.1 to 6.6 Hours, Type II Collagen 1.63 ug/ml (collagenase 1) of 0%. The Average Percent Inhibition from 1.1 to 6.6 Hours, Type II Collagen 4.89 ug/ml (collagenase 1) was 2%, the Average Percent Inhibition from 1.1 to 6.6 Hours, Type II Collagen 14.67 ug/ml (collagenase 1) was 10% and the Average Percent Inhibition from 1.1 to 6.6 Hours, Type II Collagen 44.00 ug/ml (collagenase 1) was 15%. For the same substance, the Average Percent Inhibition, 0.10-1.10 h, TypeIICOL 1.6 ug/ul (collagenase 1) was 19%, the Average Percent Inhibition, 0.10-1.10 h, TypeIICOL 4.9 ug/ul (collagenase 1) was 37% and the Average Percent Inhibition, 0.10-1.10 h, TypeIICOL 15 ug/ul (collagenase 1) was 44%. It also gave an Average Percent Inhibition, 0.10-1.10 h, TypeIICOL 44 ug/ul (collagenase 1) of 50%, an Average Percent Inhibition, 0.10-1.10 h, TypeIICOL .18 ug/ul (collagenase 1) of 17% and an Average Percent Inhibition, 0.10-1.10 h, TypeIICOL .55 ug/ul (collagenase 1) of 15%. For the same substance, the Average Percent Inhibition, 1.10-2.10 h, TypeIICOL 1.6 ug/ul (collagenase 1) was 6%, the Average Percent Inhibition, 1.10-2.10 h, TypeIICOL 4.9 ug/ul (collagenase 1) was 13% and the Average Percent Inhibition, 1.10-2.10 h, TypeIICOL 15 ug/ul (collagenase 1) was 21%. The Average Percent Inhibition, 1.10-2.10 h, TypeIICOL 44 ug/ul (collagenase 1) was 29%, the Average Percent Inhibition, 1.10-2.10 h, TypeIICOL .18 ug/ul (collagenase 1) was 3% and the Average Percent Inhibition, 1.10-2.10 h, TypeIICOL .55 ug/ul (collagenase 1) was 6%. For the same substance, the Average Percent Inhibition, 2.10-3.10 h, TypeIICOL 1.6 ug/ul (collagenase 1) was 0%, the Average Percent Inhibition, 2.10-3.10 h, TypeIICOL 4.9 ug/ul (collagenase 1) was 3% and the Average Percent Inhibition, 2.10-3.10 h, TypeIICOL 15 ug/ul (collagenase 1) was 12%. For the same substance, the Average Percent Inhibition, 2.10-3.10 h, TypeIICOL 44 ug/ul (collagenase 1) was 18%, the Average Percent Inhibition, 2.10-3.10 h, TypeIICOL .18 ug/ul (collagenase 1) was 0% and the Average Percent Inhibition, 2.10-3.10 h, TypeIICOL .55 ug/ul (collagenase 1) was 3%. For the same substance, the Average Percent Inhibition, 3.10-4.10 h, TypeIICOL 1.6 ug/ul (collagenase 1) was -2%, the Average Percent Inhibition, 3.10-4.10 h, TypeIICOL 4.9 ug/ul (collagenase 1) was 0% and the Average Percent Inhibition, 3.10-4.10 h, TypeIICOL 15 ug/ul (collagenase 1) was 8%. It also gave an Average Percent Inhibition, 3.10-4.10 h, TypeIICOL 44 ug/ul (collagenase 1) of 12%, an Average Percent Inhibition, 3.10-4.10 h, TypeIICOL .18 ug/ul (collagenase 1) of -1% and an Average Percent Inhibition, 3.10-4.10 h, TypeIICOL .55 ug/ul (collagenase 1) of 2%. It also gave an Average Percent Inhibition, 4.10-5.10 h, TypeIICOL 1.6 ug/ul (collagenase 1) of -3%, an Average Percent Inhibition, 4.10-5.10 h, TypeIICOL 4.9 ug/ul (collagenase 1) of -2% and an Average Percent Inhibition, 4.10-5.10 h, TypeIICOL 15 ug/ul (collagenase 1) of 6%. It also gave an Average Percent Inhibition, 4.10-5.10 h, TypeIICOL 44 ug/ul (collagenase 1) of 9%, an Average Percent Inhibition, 4.10-5.10 h, TypeIICOL .18 ug/ul (collagenase 1) of -1% and an Average Percent Inhibition, 4.10-5.10 h, TypeIICOL .55 ug/ul (collagenase 1) of 1%. It also gave an Average Percent Inhibition, 5.10-6.10 h, TypeIICOL 1.6 ug/ul (collagenase 1) of -4%, an Average Percent Inhibition, 5.10-6.10 h, TypeIICOL 4.9 ug/ul (collagenase 1) of -4% and an Average Percent Inhibition, 5.10-6.10 h, TypeIICOL 15 ug/ul (collagenase 1) of 4%. The Average Percent Inhibition, 5.10-6.10 h, TypeIICOL 44 ug/ul (collagenase 1) was 7%, the Average Percent Inhibition, 5.10-6.10 h, TypeIICOL .18 ug/ul (collagenase 1) was -1% and the Average Percent Inhibition, 5.10-6.10 h, TypeIICOL .55 ug/ul (collagenase 1) was 1%. It also gave an Average Percent Inhibition from 1.1 to 6.6 Hours, Type II Collagen 0.18 ug/ml (gelatinase B) of 9%, an Average Percent Inhibition from 1.1 to 6.6 Hours, Type II Collagen 0.54 ug/ml (gelatinase B) of 9% and an Average Percent Inhibition from 1.1 to 6.6 Hours, Type II Collagen 1.63 ug/ml (gelatinase B) of 12%. For the same substance, the Average Percent Inhibition from 1.1 to 6.6 Hours, Type II Collagen 4.89 ug/ml (gelatinase B) was 38%, the Average Percent Inhibition from 1.1 to 6.6 Hours, Type II Collagen 14.67 ug/ml (gelatinase B) was 65% and the Average Percent Inhibition from 1.1 to 6.6 Hours, Type II Collagen 44.00 ug/ml (gelatinase B) was 84%. For the same substance, the Average Percent Inhibition, 0.10-1.10 h, TypeIICOL 1.6 ug/ul (gelatinase B) was -28%, the Average Percent Inhibition, 0.10-1.10 h, TypeIICOL 4.9 ug/ul (gelatinase B) was 35% and the Average Percent Inhibition, 0.10-1.10 h, TypeIICOL 15 ug/ul (gelatinase B) was 57%. The Average Percent Inhibition, 0.10-1.10 h, TypeIICOL 44 ug/ul (gelatinase B) was 41%, the Average Percent Inhibition, 0.10-1.10 h, TypeIICOL .18 ug/ul (gelatinase B) was 3% and the Average Percent Inhibition, 0.10-1.10 h, TypeIICOL .55 ug/ul (gelatinase B) was 3%. For the same substance, the Average Percent Inhibition, 1.10-2.10 h, TypeIICOL 1.6 ug/ul (gelatinase B) was 14%, the Average Percent Inhibition, 1.10-2.10 h, TypeIICOL 4.9 ug/ul (gelatinase B) was 43% and the Average Percent Inhibition, 1.10-2.10 h, TypeIICOL 15 ug/ul (gelatinase B) was 67%. It also gave an Average Percent Inhibition, 1.10-2.10 h, TypeIICOL 44 ug/ul (gelatinase B) of 82%, an Average Percent Inhibition, 1.10-2.10 h, TypeIICOL .18 ug/ul (gelatinase B) of 12% and an Average Percent Inhibition, 1.10-2.10 h, TypeIICOL .55 ug/ul (gelatinase B) of 10%. The Average Percent Inhibition, 2.10-3.10 h, TypeIICOL 1.6 ug/ul (gelatinase B) was 19%, the Average Percent Inhibition, 2.10-3.10 h, TypeIICOL 4.9 ug/ul (gelatinase B) was 47% and the Average Percent Inhibition, 2.10-3.10 h, TypeIICOL 15 ug/ul (gelatinase B) was 72%. For the same substance, the Average Percent Inhibition, 2.10-3.10 h, TypeIICOL 44 ug/ul (gelatinase B) was 87%, the Average Percent Inhibition, 2.10-3.10 h, TypeIICOL .18 ug/ul (gelatinase B) was 11% and the Average Percent Inhibition, 2.10-3.10 h, TypeIICOL .55 ug/ul (gelatinase B) was 12%. It also gave an Average Percent Inhibition, 3.10-4.10 h, TypeIICOL 1.6 ug/ul (gelatinase B) of 15%, an Average Percent Inhibition, 3.10-4.10 h, TypeIICOL 4.9 ug/ul (gelatinase B) of 41% and an Average Percent Inhibition, 3.10-4.10 h, TypeIICOL 15 ug/ul (gelatinase B) of 69%. The Average Percent Inhibition, 3.10-4.10 h, TypeIICOL 44 ug/ul (gelatinase B) was 87%, the Average Percent Inhibition, 3.10-4.10 h, TypeIICOL .18 ug/ul (gelatinase B) was 9% and the Average Percent Inhibition, 3.10-4.10 h, TypeIICOL .55 ug/ul (gelatinase B) was 10%. It also gave an Average Percent Inhibition, 4.10-5.10 h, TypeIICOL 1.6 ug/ul (gelatinase B) of 11%, an Average Percent Inhibition, 4.10-5.10 h, TypeIICOL 4.9 ug/ul (gelatinase B) of 35% and an Average Percent Inhibition, 4.10-5.10 h, TypeIICOL 15 ug/ul (gelatinase B) of 64%. For the same substance, the Average Percent Inhibition, 4.10-5.10 h, TypeIICOL 44 ug/ul (gelatinase B) was 85%, the Average Percent Inhibition, 4.10-5.10 h, TypeIICOL .18 ug/ul (gelatinase B) was 7% and the Average Percent Inhibition, 4.10-5.10 h, TypeIICOL .55 ug/ul (gelatinase B) was 8%. It also gave an Average Percent Inhibition, 5.10-6.10 h, TypeIICOL 1.6 ug/ul (gelatinase B) of 7%, an Average Percent Inhibition, 5.10-6.10 h, TypeIICOL 4.9 ug/ul (gelatinase B) of 30% and an Average Percent Inhibition, 5.10-6.10 h, TypeIICOL 15 ug/ul (gelatinase B) of 59%. The Average Percent Inhibition, 5.10-6.10 h, TypeIICOL 44 ug/ul (gelatinase B) was 83%, the Average Percent Inhibition, 5.10-6.10 h, TypeIICOL .18 ug/ul (gelatinase B) was 5% and the Average Percent Inhibition, 5.10-6.10 h, TypeIICOL .55 ug/ul (gelatinase B) was 6%. The Average Percent Inhibition from 1.1 to 6.6 Hours, Type II Collagen 0.18 ug/ml [1] was -8%, the Average Percent Inhibition from 1.1 to 6.6 Hours, Type II Collagen 0.54 ug/ml [1] was -11% and the Average Percent Inhibition from 1.1 to 6.6 Hours, Type II Collagen 1.63 ug/ml [1] was -11%. It also gave an Average Percent Inhibition from 1.1 to 6.6 Hours, Type II Collagen 4.89 ug/ml [1] of -28%, an Average Percent Inhibition from 1.1 to 6.6 Hours, Type II Collagen 14.67 ug/ml [1] of -44% and an Average Percent Inhibition from 1.1 to 6.6 Hours, Type II Collagen 44.00 ug/ml [1] of -53%. It also gave an Average Percent Inhibition, 0.10-1.10 h, TypeIICOL 1.6 ug/ul [1] of 16%, an Average Percent Inhibition, 0.10-1.10 h, TypeIICOL 4.9 ug/ul [1] of 8% and an Average Percent Inhibition, 0.10-1.10 h, TypeIICOL 15 ug/ul [1] of 6%. The Average Percent Inhibition, 0.10-1.10 h, TypeIICOL 44 ug/ul [1] was 2%, the Average Percent Inhibition, 0.10-1.10 h, TypeIICOL .18 ug/ul [1] was 6% and the Average Percent Inhibition, 0.10-1.10 h, TypeIICOL .55 ug/ul [1] was 14%. For the same substance, the Average Percent Inhibition, 1.10-2.10 h, TypeIICOL 1.6 ug/ul [1] was -4%, the Average Percent Inhibition, 1.10-2.10 h, TypeIICOL 4.9 ug/ul [1] was -31% and the Average Percent Inhibition, 1.10-2.10 h, TypeIICOL 15 ug/ul [1] was -48%. It also gave an Average Percent Inhibition, 1.10-2.10 h, TypeIICOL 44 ug/ul [1] of -55%, an Average Percent Inhibition, 1.10-2.10 h, TypeIICOL .18 ug/ul [1] of -9% and an Average Percent Inhibition, 1.10-2.10 h, TypeIICOL .55 ug/ul [1] of -11%. For the same substance, the Average Percent Inhibition, 2.10-3.10 h, TypeIICOL 1.6 ug/ul [1] was -15%, the Average Percent Inhibition, 2.10-3.10 h, TypeIICOL 4.9 ug/ul [1] was -38% and the Average Percent Inhibition, 2.10-3.10 h, TypeIICOL 15 ug/ul [1] was -59%.
